Measurements reported in patent publication US20250320281A1.

Key:
Assay in all cases: cell-based or functional assay
[1] = target: HIV-1 Env of isolate VLGCB3, clade B, on pseudovirus (HIV-1)
[2] = target: HIV-1 Env of isolate NL43, clade B, on pseudovirus (HIV-1)
[3] = target: HIV-1 Env of pseudovirus MGRM-AE-007 (clade CRF01_AE) (HIV-1)
[4] = target: HIV-1 APV-17 envelope glycoprotein (Env) on pseudovirus (HIV-1)
[5] = target: HIV-1 Env of pseudovirus MGRM-AG-003 (clade CRF_AG) (HIV-1)
[6] = target: HIV-1 Env of isolate 6535.3 (Acute), clade B, on pseudovirus (HIV-1)
[7] = target: HIV-1 envelope glycoprotein (Env) of isolate 92UG031, clade A (HIV-1)
[8] = target: HIV-1 Env of pseudovirus JRFL (HIV-1)
[9] = target: HIV-1 envelope glycoprotein (Env) of isolate 92UG037, clade A (HIV-1)
[10] = target: HIV-1 Env of pseudovirus MGRM-AE-001 (clade CRF01_AE) (HIV-1)
[11] = target: HIV-1 NL43 envelope glycoprotein (Env) on pseudovirus (HIV-1)
[12] = target: HIV-1 Env of pseudovirus MGRM-F1-015 (HIV-1)
[13] = target: HIV-1 Env of pseudovirus MGRM-AE-002 (clade CRF01_AE) (HIV-1)
[14] = target: HIV-1 envelope glycoprotein (Env) of isolate 92RW008, clade A (HIV-1)
[15] = target: HIV-1 Env of isolate THR0.18 (Acute), clade B, on pseudovirus (HIV-1)
[16] = target: HIV-1 92UG005 envelope glycoprotein (Env) on pseudovirus (HIV-1)
[17] = target: HIV-1 93UG077 envelope glycoprotein (Env) on pseudovirus (HIV-1)
[18] = target: HIV-1 Env of isolate MGRM-D-004 (clade D pseudovirus) (HIV-1)
[19] = target: HIV-1 Env of isolate 93TH305, clade B, on pseudovirus (HIV-1)
[20] = target: HIV-1 Env of isolate MGRM-Chronic-B-023 (subtype B) (HIV-1)
[21] = target: HIV-1 Env of isolate MGRM-D-001 (clade D), on pseudovirus (HIV-1)
[22] = target: HIV-1 Env of isolate MG RM-D-005 (HIV-1)
[23] = target: HIV-1 Env of isolate MGRM-AE-002 (subtype AE) (HIV-1)
[24] = target: HIV-1 Env of isolate SF162 (subtype B) (HIV-1) (UniProt P19550)
[25] = target: HIV-1 Env of isolate MGRM-A-003 (HIV-1)
[26] = target: HIV-1 Env of isolate VLGCA1 (subtype A) (HIV-1)
[27] = target: HIV-1 Env of isolate QH0692.42 (subtype B) (HIV-1)
[28] = target: HIV-1 Env of isolate MG RM-D-022 (HIV-1)
[29] = target: HIV-1 Env of isolate 92UG114 (HIV-1)
[30] = target: HIV-1 92BR020 Env (pseudovirus) (HIV-1)
[31] = target: HIV-1 APV17 Env (pseudovirus, clade B) (HIV-1)
[32] = target: HIV-1 Env of isolate MGRM-AG-003 (subtype AG) (HIV-1)
[33] = target: aMLV envelope (pseudovirus, negative control)
[34] = target: HIV-1 Env of isolate MGRM-Chronic-B-010 (subtype B) (HIV-1)
[35] = target: HIV-1 Env of isolate MGRM-A-005 (HIV-1)

Substance 2F5 (antibody) has an IC50 (µg/ml), pseudovirus neutralization [1] greater than 50 µg/mL, an IC50 (µg/ml), pseudovirus neutralization [2] of 2.02 µg/mL and an IC50 [3] of 0.07 µg/mL. It also gave an IC50, pseudovirus neutralization [4] of 2 µg/mL, an IC50 [5] of 0.14 µg/mL and an IC50 (µg/ml), pseudovirus neutralization [6] of 2.76 µg/mL. For the same substance, the IC50 (µg/ml), pseudovirus neutralization [7] was 3.81 µg/mL, the IC50 (µg/ml), pseudovirus neutralization [8] was 3.54 µg/mL and the IC50 (µg/ml), pseudovirus neutralization [9] was 3.24 µg/mL. For the same substance, the IC50 [10] was 0.29 µg/mL, the IC50, pseudovirus neutralization [11] was 2.41 µg/mL and the IC50 (µg/ml), pseudovirus neutralization [12] was 0.1 µg/mL. It also gave an IC50 [13] of 0.31 µg/mL, an IC50 (µg/ml), pseudovirus neutralization [14] of 10.4 µg/mL and an IC50 (µg/ml), pseudovirus neutralization [15] greater than 50 µg/mL. The IC50, pseudovirus neutralization [16] was 11.8 µg/mL, the IC50, pseudovirus neutralization [17] was 4.45 µg/mL and the IC50 (µg/ml), pseudovirus neutralization [18] was 2.3 µg/mL. For the same substance, the IC50 (µg/ml), pseudovirus neutralization [19] was 7.61 µg/mL.
With 5147_N06 (PGT-130) (antibody) the IC50 neutralization [20] was greater than 50 µg/mL, the IC50, pseudovirus neutralization [21] was greater than 10 µg/mL and the IC50 (µg/mL), pseudovirus neutralization [22] was greater than 50 µg/mL. For the same substance, the IC50 (µg/mL), pseudovirus neutralization [23] was 1.53 µg/mL, the IC50 neutralization [24] was 0.007 µg/mL and the IC50 [25] was greater than 50 µg/mL. For the same substance, the IC50 (µg/mL), pseudovirus neutralization [26] was greater than 50 µg/mL, the IC50 neutralization [27] was greater than 50 µg/mL and the IC50 (µg/mL), pseudovirus neutralization [28] was greater than 50 µg/mL. The IC50 (µg/mL), pseudovirus neutralization [29] was greater than 50 µg/mL, the Neutralization by PGT-130, IC50 [30] was 1.12 µg/mL and the Neutralization by PGT-130, IC80 [30] was greater than 10 µg/mL. The Neutralization by PGT-130, IC90 [30] was greater than 10 µg/mL, the Neutralization by PGT-130, IC95 [30] was greater than 10 µg/mL and the neutralization IC50 (pseudovirus) [30] was 1.12 µg/mL. It also gave an IC50 neutralization [31] greater than 10 µg/mL, an IC50 (µg/mL), pseudovirus neutralization [32] of 0.041 µg/mL and a Neutralization by PGT-130, IC50 [33] greater than 10 µg/mL. For the same substance, the Neutralization by PGT-130, IC80 [33] was greater than 10 µg/mL, the Neutralization by PGT-130, IC90 [33] was greater than 10 µg/mL and the Neutralization by PGT-130, IC95 [33] was greater than 10 µg/mL. For the same substance, the neutralization IC50 (pseudovirus) [33] was greater than 10 µg/mL, the IC50 neutralization [34] was 0.006 µg/mL and the IC50 [35] was greater than 50 µg/mL.
1495_C14 (PGC14) (antibody) showed an IC50 (µg/ml), pseudovirus neutralization [1] of 21 µg/mL, an IC50 (µg/ml), pseudovirus neutralization [2] of 40 µg/mL and an IC50 [3] greater than 50 µg/mL. The IC50, pseudovirus neutralization [4] was greater than 50 µg/mL, the IC50 [5] was greater than 50 µg/mL and the IC50 (µg/ml), pseudovirus neutralization [6] was 35 µg/mL. For the same substance, the IC50 (µg/ml), pseudovirus neutralization [7] was greater than 50 µg/mL, the IC50 (µg/ml), pseudovirus neutralization [8] was greater than 50 µg/mL and the IC50 (µg/ml), pseudovirus neutralization [9] was greater than 50 µg/mL. It also gave an IC50 [10] greater than 50 µg/mL, an IC50, pseudovirus neutralization [11] of 0.373 µg/mL and an IC50 (µg/ml), pseudovirus neutralization [12] greater than 50 µg/mL. It also gave an IC50 [13] greater than 50 µg/mL, an IC50 (µg/ml), pseudovirus neutralization [14] of 37 µg/mL and an IC50 (µg/ml), pseudovirus neutralization [15] greater than 50 µg/mL. For the same substance, the IC50, pseudovirus neutralization [16] was greater than 50 µg/mL, the IC50, pseudovirus neutralization [17] was greater than 50 µg/mL and the IC50 (µg/ml), pseudovirus neutralization [18] was greater than 50 µg/mL. The IC50 (µg/ml), pseudovirus neutralization [19] was 6 µg/mL.
4E10 (antibody) was tested, and the IC50 (µg/ml), pseudovirus neutralization [1] was 5.76 µg/mL, the IC50 (µg/ml), pseudovirus neutralization [2] was 4.67 µg/mL and the IC50 [3] was 0.45 µg/mL. For the same substance, the IC50, pseudovirus neutralization [4] was 5.1 µg/mL, the IC50 [5] was 0.64 µg/mL and the IC50 (µg/ml), pseudovirus neutralization [6] was 1.23 µg/mL. The IC50 (µg/ml), pseudovirus neutralization [7] was 4.94 µg/mL, the IC50 (µg/ml), pseudovirus neutralization [8] was 18.9 µg/mL and the IC50 (µg/ml), pseudovirus neutralization [9] was 8.84 µg/mL. For the same substance, the IC50 [10] was 0.85 µg/mL, the IC50, pseudovirus neutralization [11] was 4.95 µg/mL and the IC50 (µg/ml), pseudovirus neutralization [12] was 0.53 µg/mL. For the same substance, the IC50 [13] was 0.55 µg/mL, the IC50 (µg/ml), pseudovirus neutralization [14] was 14.5 µg/mL and the IC50 (µg/ml), pseudovirus neutralization [15] was 4.68 µg/mL. The IC50, pseudovirus neutralization [16] was 8.86 µg/mL, the IC50, pseudovirus neutralization [17] was 11.2 µg/mL and the IC50 (µg/ml), pseudovirus neutralization [18] was 1.58 µg/mL. For the same substance, the IC50 (µg/ml), pseudovirus neutralization [19] was 12.3 µg/mL.
b12 (antibody) showed an IC50 (µg/ml), pseudovirus neutralization [1] of 0.15 µg/mL, an IC50 (µg/ml), pseudovirus neutralization [2] of 0.17 µg/mL and an IC50 [3] greater than 50 µg/mL. For the same substance, the IC50, pseudovirus neutralization [4] was greater than 25 µg/mL, the IC50 [5] was greater than 50 µg/mL and the IC50 (µg/ml), pseudovirus neutralization [6] was 1.93 µg/mL. For the same substance, the IC50 (µg/ml), pseudovirus neutralization [7] was greater than 50 µg/mL, the IC50 (µg/ml), pseudovirus neutralization [8] was 0.02 µg/mL and the IC50 (µg/ml), pseudovirus neutralization [9] was greater than 50 µg/mL. It also gave an IC50 [10] of 25.9 µg/mL, an IC50, pseudovirus neutralization [11] of 0.06 µg/mL and an IC50 (µg/ml), pseudovirus neutralization [12] greater than 50 µg/mL. The IC50 [13] was 17.1 µg/mL, the IC50 (µg/ml), pseudovirus neutralization [14] was 9.46 µg/mL and the IC50 (µg/ml), pseudovirus neutralization [15] was 3.62 µg/mL. For the same substance, the IC50, pseudovirus neutralization [16] was greater than 50 µg/mL, the IC50, pseudovirus neutralization [17] was 41.1 µg/mL and the IC50 (µg/ml), pseudovirus neutralization [18] was greater than 50 µg/mL. It also gave an IC50 (µg/ml), pseudovirus neutralization [19] of 4.17 µg/mL.
